This sample holds only a part of the variants without activity.
B1: TPR 5TU (parent)
chain: GGAUCUUCUCGAUCUAACAAAAAAGACAAAUCUGCCACAAAGCUUGAGAGCAUCUUCGGAUGCAGAGGCGGCAGCCUUCGGUGGCGCGAUAGCGCCAACGUUCUCAACUAUGACACGCAAAACGCGUGCUCCGUUGAAUGGAGUUUAUCAUG

Variants of: B1
Test: polymerase ribozyme fitness, log enrichment relative to wild type (log ratio); higher = more active; in vitro selection for triplet polymerase activity
Procedure, shortened: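 Each subunit of a heterodimeric triplet polymerase ribozyme was mutagenized into a library by PCR, transcribed, and subjected to one round of in vitro selection, run in triplicate. Libraries were annealed with a biotinylated primer, the partner subunit and triplets, incubated frozen at −7 °C, and extended constructs were gel-excised, captured on streptavidin beads and recovered by RT-PCR. Input and output libraries were sequenced on Illumina, keeping genotypes with ≥10 input reads and ≥1 read per output. Fitness is log base 2 of genotype enrichment divided by wild-type enrichment, from inverse-variance-weighted replicate averages.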

Row | Variant | polymerase ribozyme fitness (log ratio)
1 | GGAUCUUCUCGAUCUAACAAAACAGACAAAUCUGCCACAAAGCUUGACAGCAUCUUCGGAUGCAGAGCCGGCAGCCUUCGGUGGCGCGAUAGCGCCAAUGCUCUCAACUAUGACACGCAAAUCGCGUGCUCCGUUGAAUGGAGGUUAUCAUG | ≤ -4.2
2 | GGAUCUUCUCGAUCUAACAAAAGAGUCAAAUCUGCCACAAAGCUUGAGAGCAUCUUCGGAUGCAGAGGCGGCAGCCUUCGGUGGCGCGAUAGCCCCAACGUUCUCAACUCUGACACGCAAAACGCGUGCUCCGUUGAAUGGAGUUUAUCAUG | ≤ -4.2
3 | GGAUCUUCUCGAUCUAACAAAACAGACAAAUCUGCCACAAAGCGUGUGAGCAUCUUCGGAUGCAGAGGCGGCAGCCUUCGGUGGCGCGAUUGCGCCAACGUUCUCAACUAUGACACGCAAAUCGCGUGCUCCGUUGAAUGGAGUUUAUCAUG | ≤ -4.2
4 | GGAUCUUCUCGAUCUAACAAAACAGACAAAUCUUCCACAAAGUUUGAGAGCAUCUUCGGGUGCAGAGGCGGCAGCCUUCGGUGGCGCGAUAGCGCCAACGUUCUCAACUAUGACACGCAAAACGCGUGCUCUGUUGAAUGGAGUUUAUCAUG | -4.02
5 | GGAUCUUCUCGAUCUAACAAAACAGACAAAUCUGCCACAAAGCUUGAGAGCAUCUUCGGAUGCAGAGGCGGCAGCCUUAGGUGGCGCGAUAGCGCCAACGUUUUCAACUAUGACACGCAAAACGCGUGCUCCGUUGAGUGGACUUUAUCAUG | ≤ -4.2
6 | GGAUCUUCUCGAUCUAACAAAACAGACAAAUCUGAGACAAAGCUUGAGAGCAUAUUCGGAUGCAGAGGCGGCAGCCUUCGGUGGCGCGAUAGCGCCAACGUUCUCAACUAUGACACGCAAAACGCGUGCUCCGUUGGAUGGAGUUUAGCAUG | ≤ -4.2
7 | GGAUCUUCUCGAUCUAACAAAACAGACAAAUCUGCCACAAAGCUUGAGAGCAUCUUCAGAUACAGAGGCGGCAGCCUUCGGUGGCGAGAUAGCGCCAACGUUCUCAACUAUGACAGGCAAAACGCGUGCUCCGUGGAAUGGAGUUUAUCAUG | ≤ -4.2
8 | GGAUCUUCUCGAUCUAACAAAACAGACAAAUCUGCCACAAAGCUUGAGAGCAUCUUCGGAUGCAGAGGCGGCAGCCUUCGGUGGCGCGAUAGCGCCAACGUUCUCAACUAUGACACGCAAAACGCGUGCUCCGUUGAAUGCAGUUUAUCAUG | -3.64
9 | GGAUCUUCUCGAUCUAACAAAAGAGACAAAUGUGCCACAAAGCUUGAGAGCAUCUUUGGAUGCAGAGGCGGCAACCUUCGGUGGCGCGAUAGUGCCAACGGUCUCAACUAUGACACGCAAAACGCGUGCUCCGUUGUAUGGAGUUUAUCAUG | ≤ -4.2
10 | GGAUCUUCUCGAUCUAACAAAAGAGACAAAUCUGCCACAAAGCUUGCGAGCAUCUUCGGAUGCAGAGGCGGCAGCCUUCGGUGGCGCGAUAGCGCCAACGUUCUCAACUAUGACACGCAAAACGCGUGCUCCGUUGAAUGGAGUUUAUCAUG | -2.96
11 | GGAUCUUCUCGAUCUAACAAAAGAGCCAAAUCUGCCACAAAGCUUGAGAGCAUCUUCGGAUGCAGAGGCGGCAGCCUUCGGUGGCGCGAUAGCGCCAACGUUCUCAACUAUGACACGCAAAACGCGUGCUCCGUUGAAUGAAGUUUAUGAUG | ≤ -4.2
12 | GGAUCUUCUCGAUCUAACAAAAGAGACAAAUCUGCCACAAAGCUUGAGAGCUUCUUCGGAUGCAGAGGCGGCAGCCUUCGGUGGCGCGAUAGCGCCAACGUUCUCAACUAUGACACGCAAAACGCGUGCUCCGUUGAAUGGAGUUUAUCAUG | -3.51
13 | GGAUCUUCUCGAUCUAACAAAAGAGACAAAUCUGCCACAAAGCUUGAGUGCAUCUUCGGGUGCAGAGGCGGCAGCCUUCGGUGGCGCGAUAGCGCCAACGUUCUCAACUAUGACACGCUUACCGCGUGCUCCGUUGAAUGGAGUUUAUCAUG | -3.98
14 | GGAUCUUCUCGAUCUAACAAAACAGAUAGAUCUGCCACAAAGCUUGAGAGCAUCUUCGGAUGCAGAGGCGGCAGCCUUCGGUGGCGUGAUAGCGCCAACGUUCUCAACUGUGACACGCAAAACGCGUGCUCCGUUGAAUGGAGUUUAUCAUG | ≤ -4.2
15 | GGAUCUUCUCGAUCUAACAAAAGAGACAAAUCUGCCACACAGCUUGAGAGCAUCUUCGGAUGCAGAGGCGGCAGCCUUCGGUGGCGCGAUAGCGCCAACGUUCUCAACUAUGACACGCAAAACGCGUGCUCCGUUGAAUGCAGUUUAUCAUG | -3.82
16 | GGAUCUUCUCGAUCUAACAAAACAGACAAAUCUGCCACAAAGCUUGAGAGCAUCUUCGGAUGCAGAGGCGGCAGCCUUCGGUGUCGCGAUAGCGCCAACGUUCUCUACUAUGACACUUAAAAUGCGUGCUCCGUUGAAUGGGGUUUAUCAUG | ≤ -4.2
17 | GGAUCUUCUCGAUCUAACAAAAGAGACAAAUCUGCCACAAAGCUUGAGAGGAACUUCGGGUGCAGAGGCGGCAGCCUUCGGUGACGCGAUAGCGCCAACGUUCGCAACUAUGACAUGCAACACGCGUGCUCCGUUGAAUGGAGUUUAUCAUG | ≤ -4.2
18 | GGAUCUUCUCGAUCUAACAAAACACAGAAAUCUGCCACAAAGCUUGAGAGCAAGUUCGGAUGCAGGGGCGGCAGCCUUCAGUGGCGCGAUGACGCCAAUGUUCUCAACUAUGACACGCAAAACGCGUGCUCCGUUGAAUGGAGUUUAUCAUG | ≤ -4.2
19 | GGAUCUUCUCGAUCUAACAAAAGAGACAAAUCUGCCACAAAGCUUGAGAGCAUCUUCGGAUGCAGAGGCGGCAGCCUUCGGUGGUGCGAUAGCGCCAACGUUCUCAACUAUGACACGCAAAACGCGUGCUCCGUUGAAUGGAGUUUAUCAUG | -2.38

— the RNAGym collection of RNA variant scans (doi:10.1073/pnas.2313332121)
